Measurements taken from publication PMC7794784, “A Very Bright Far-Red Bioluminescence Emitting Combination Based on Engineered Railroad Worm Luciferase and 6′-Amino-Analogs for Bioimaging Purposes” (International Journal of Molecular Sciences, 2020).
Where a chain is given by its changes, count along the chain named. Names may count otherwise.

What was measured:
[1] = substrate: Nc1ncnc2c1ncn2[C@@H]1O[C@H](COP(=O)(O)OP(=O)(O)OP(=O)(O)O)[C@@H](O)[C@H]1O; experiment: purified protein; details: co-substrate D-luciferin, 4 mM MgSO4, 0.10 M Tris-HCl pH 8.0, 22 °C
[2] = substrate: O=C(O)[C@H]1CSC(c2nc3ccc(N4CCCC4)cc3s2)=N1; experiment: bioluminescence peak intensity (I0), Lineweaver-Burk; format: biochemical, Phrixothrix hirtus; details: 2 mM ATP, 4 mM MgSO4, 0.10 M Tris-HCl pH 8.0, 22 °C, kcat in relative luminometer counts
Description: (§1) bioluminescence peak intensity (I0), Lineweaver-Burk on PxRE luciferase (P. hirtus red-emitting luciferase, RE WT)

[3] = substrate: O=C(O)[C@H]1CSC(c2nc3ccc(O)cc3s2)=N1; experiment: as above; format: biochemical, Phrixothrix hirtus; details: 2 mM ATP, 4 mM MgSO4, 0.10 M Tris-HCl pH 8.0, 22 °C, kcat in relative luminometer counts
Description: as §1

B1: PxRE luciferase (P. hirtus red-emitting luciferase, RE WT) (Phrixothrix hirtus) (protein)
chain: MEEENIVNGDRPRDLVFPGTAGLQLYQSLYKYSYITDGIIDAHTNEVISYAQIFETSCRLAVSLEKYGLDHNNVVAICSENNIHFFGPLIAALYQGIPMATSNDMYTEREMIGHLNISKPCLMFCSKKSLPFILKVQKHLDFLKKVIVIDSMYDINGVECVFSFVSRYTDHAFDPVKFNPKEFDPLERTALIMTSSGTTGLPKGVVISHRSITIRFVHSSDPIYGTRIAPDTSILAIAPFHHAFGLFTALAYFPVGLKIVMVKKFEGEFFLKTIQNYKIASIVVPPPIMVYLAKSPLVDEYNLSSLTEIACGGSPLGRDIADKVAKRLKVHGILQGYGLTETCSALILSPNDRELKKGAIGTPMPYVQVKVIDINTGKALGPREKGEICFKSQMLMKGYHNNPQATRDALDKDGWLHTGDLGYYDEDRFIYVVDRLKELIKYKGYQVAPAELENLLLQHPNISDAGVIGIPDEFAGQLPSACVVLEPGKTMTEKEVQDYIAELVTTTKHLRGGVVFIDSIPKGPTGKLMRNELRAIFAREQAKSKL
Km [1]: 230 µM
Km [2]: 0.5 µM
Km [3]: 7 µM

B2: PxRE luciferase (P. hirtus red-emitting luciferase, RE WT) (Phrixothrix hirtus; R215K) (protein)
chain: B1 chain with R215K
Km [1]: 50 µM
Km [2]: 1.0 µM
Km [3]: 40 µM
